Experimental data published in US20130210034A1, “COMPLEX PHOSPHOPROTEIN ACTIVATION PROFILES” (BECKMAN COULTER, INC., priority 2005, published 2013).
Several values for one entry are separate records, joined by “and”; a condition that tells them apart may be missing. Equal entries are not always repeated.

Key:
Experiment in all cases: Cytokine-stimulated phosphorylation in immunophenotypically defined cell populations from healthy donor BM (flow cytometry);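 for pAKT S/N ratio: Phosphoprotein MFI normalized to lymphocyte MFI as internal negative control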;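 for pERK S/N ratio: Phosphoprotein MFI normalized to lymphocyte MFI as internal negative control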;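 for pSTAT3 S/N ratio: Phosphoprotein MFI normalized to lymphocyte MFI as internal negative control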
Format in all cases: cell-based, human
pERK = details: healthy donor BM, mean ± SD
Description: (§1) Bone marrow (BM) samples were collected in 7.5 mL Iscove's modified Dulbecco's medium (IMDM) supplemented with 100U penicillin, 0.01 mg/mL streptomycin, and 70 μg/mL heparin sodium salt from 10 patients undergoing hip replacement surgery, who were otherwise healthy. These patients were from a pool of surgery patients, age 49 to 77, and represented […] patients. […] These BM samples were rinsed twice with IMDM to release cells, filtered using a 100 μm Nylon cell strainer to remove marrow particles, and centrifuged for at RT fro 7 minutes at 200 g. The cell pellet was washed twice with sterile IMDM to remove traces of fat and re-suspended in IMDM to a concentration of 3×10^7 cells/mL.
(§2) To assess the signal transduction response after growth factor simulation, a series comprising two sets of tubes including about 3×10^6 cells/100 μL were incubated at 37° C. for 30 minutes. After this pre-incubation period, tubes with then processes with either a stimulant or inhibitor. […] To examine the effects of protein phosphorylation inhibition, tubes were incubated with an inhibitor cocktail comprising 100 μM/100 μL UO126, 1 μM/100 μL LY294002, and 1 μM/100 μL rapamycin. One unstimulated tube receiving no stimulant or inhibitor was processed to assess basal levels of phospho-protein expression. After stimulation the cells were immediately fixed in 10% formaldehyde solution at 37° C. Pre-labeling with CD13, CD16 and CD64 antibodies was carried out 20 minutes prior to formaldehyde fixation. After fixation, one set of tubes was permeabilized without methanol for pAKT, pERK and pS6 staining and the other for 80% methanol permeabilized for pSTAT3 and pSTAT5 staining. After permeablization, the cells were washed in PBS with 2% BSA and blocked by re-suspended in 75 μL of PBS comprising 25% heat inactivated normal mouse serum, 25% normal rabbit serum. To stain cells with fluorescent conjugated monoclonal antibodies, samples were incubated on ice for 45 minutes in 100 μL of an antibody staining solution including either: 1) CD15-Pacific Orange, CD34-Phycoerythrin-Texas Red, CD117-Phycoerythrin-Cyanin 5.5, CD45-Allophycocyanin-Alexa Fluor 750 (or CD45-Pacific Orange, in which case CD15-Pacific Orange was omitted), pS6-Pacific Blue, pERK-Alexa Fluor 488 and pAKT-Alexa Fluor 647 or 2) CD15-Pacific Orange, CD34-Phycoerythrin-Texas Red, CD117-Phycoerythrin-Cyanin 5.5, CD45-Allophycocyanin-Alexa Fluor 750 or CD45-Pacific Blue, pSTAT3-Alexa Fluor 488 and pSTAT5-Phycoerythrin. The stained cells were washed twice with ice cold PBS containing 2% BSA and centrifuged at 800 g for 6 minutes at 4° C. The supernatant was discarded and cells re-suspended in 250 μL of chilled wash buffer for data acquisition. Stained cells were examined using either GALIOS flow cytometer (Beckman Coulter) or CYAN ADP (Beckman Coulter) equipped with 488 nm, 405 nm and 635 nm lasers to detect the degree of fluorescence. Data were analyzed using FCS Express (De Novo Software, CA) analysis software.
(§3) Specific phosphoprotein expression of pERK, pS6, pAKT, pSTAT5, and pSTAT3 was examined in seven discrete phenotypically defined populations based on 7-color immunophenotyping (FIG. 1). The percent of responding (phosphorprotein positive) cells for each of these populations was determined from individual single parameter histograms based on a fixed integration region set on the inhibitor treated control at about 3% positives.

pSTAT3 = details: for pSTAT3 Percent (%) Responding Cells, Mean / pSTAT3 S/N ratio: healthy donor BM, mean ± SD
Description: as §1, §2, §3

pAKT = details: healthy donor BM, mean ± SD
Description: as §1, §2, §3

B1: Granulocyte Colony-Stimulating Factor (protein, UniProt P09919 31-207, looked up)
Granulocyte …: TPLGPASSLPQSFLLKCLEQVRKIQGDGAALQEKLVSECATYKLCHPEELVLLGHSLGIPWAPLSSCPSQALQLAGCLSQLHSGLFLYQGLLQALEGISPELGPTLDTLQLDVADFATTIWQQMEELGMAPALQPTQGAMPAFASAFQRRAGGVLVASHLQSFLEVSYRVLRHLAQP
notes: colony-stimulating cytokine
- pERK Percent (%) Responding Cells, Mean (pERK; G1, immature myeloid cells): 22.9% and 22.9 ± 24.1%
- pERK S/N ratio (pERK; G1, immature myeloid cells): 4.2 ± 1.6
- pERK Percent (%) Responding Cells, Mean (pERK; G2, intermediate myeloid cells): 55.2 ± 33.1%
- pERK S/N ratio (pERK; G2, intermediate myeloid cells): 5.8 ± 2.4
- pERK Percent (%) Responding Cells, Mean (pERK; G3, mature myeloid cells): 46.0% and 46.0 ± 30.3%
- pERK S/N ratio (pERK; G3, mature myeloid cells): 6.2 ± 2.2
- pERK Percent (%) Responding Cells, Mean (pERK; Mono, monocytes): 12.7 ± 8.8%
- pERK S/N ratio (pERK; Mono, monocytes): 3.2 ± 1.6
- pSTAT3 Percent (%) Responding Cells, Mean (pSTAT3; CD34^+ (CD34^+/CD117^+ cells)): 77.8 ± 19.1%
- pSTAT3 S/N ratio (pSTAT3; CD34^+ (CD34^+/CD117^+ cells)): 9.8 ± 3.0
- pSTAT3 Percent (%) Responding Cells, Mean (pSTAT3; CD117^+ (CD34^−/CD117^+ cells)): 46.2 ± 26.8%
- pSTAT3 S/N ratio (pSTAT3; CD117^+ (CD34^−/CD117^+ cells)): 9.9 ± 4.6
- pSTAT3 Percent (%) Responding Cells, Mean (pSTAT3; G1, immature myeloid cells): 91.2 ± 20.4%
- pSTAT3 S/N ratio (pSTAT3; G1, immature myeloid cells): 13.3 ± 4.8
- pSTAT3 Percent (%) Responding Cells, Mean (pSTAT3; G2, intermediate myeloid cells): 91.3 ± 19.3%
- pSTAT3 S/N ratio (pSTAT3; G2, intermediate myeloid cells): 13.3 ± 5.1
- pSTAT3 Percent (%) Responding Cells, Mean (pSTAT3; G3, mature myeloid cells): 89.2 ± 24.9%
- pSTAT3 S/N ratio (pSTAT3; G3, mature myeloid cells): 14.0 ± 5.5
- pSTAT3 Percent (%) Responding Cells, Mean (pSTAT3; Mono, monocytes): 27.8 ± 31.8%
- pSTAT3 S/N ratio (pSTAT3; Mono, monocytes): 6.1 ± 2.7
- pSTAT3, Normal Sample (pSTAT3; Table 7 comparison value, matches percent responding CD34^+ cells of Table 5): 77.8
- pAKT Percent (%) Responding Cells, Mean (pAKT; CD34^+ (CD34^+/CD117^+ cells)): 22.5% and 22.5 ± 18.4%
- pAKT S/N ratio (pAKT; CD34^+ (CD34^+/CD117^+ cells)): 6.4 ± 5.9
- pAKT Percent (%) Responding Cells, Mean (pAKT; CD117^+ (CD34^−/CD117^+ cells)): 16.6 ± 19.8%
- pAKT S/N ratio (pAKT; CD117^+ (CD34^−/CD117^+ cells)): 2.7 ± 1.8
- pAKT Percent (%) Responding Cells, Mean (pAKT; G1, immature myeloid cells): 5.3 ± 10.9%
- pAKT S/N ratio (pAKT; G1, immature myeloid cells): 2.5 ± 1.5
- pAKT Percent (%) Responding Cells, Mean (pAKT; G2, intermediate myeloid cells): 4.1 ± 3.3%
- pAKT S/N ratio (pAKT; G2, intermediate myeloid cells): 2.5 ± 1.2
- pAKT Percent (%) Responding Cells, Mean (pAKT; G3, mature myeloid cells): 4.4 ± 3.1%
- pAKT S/N ratio (pAKT; G3, mature myeloid cells): 2.8 ± 1.4
- pAKT Percent (%) Responding Cells, Mean (pAKT; Mono, monocytes): 4.1 ± 4.9%
- pAKT S/N ratio (pAKT; Mono, monocytes): 2.6 ± 1.2
